T1: PPT1 F85del, P50897
T1 chain: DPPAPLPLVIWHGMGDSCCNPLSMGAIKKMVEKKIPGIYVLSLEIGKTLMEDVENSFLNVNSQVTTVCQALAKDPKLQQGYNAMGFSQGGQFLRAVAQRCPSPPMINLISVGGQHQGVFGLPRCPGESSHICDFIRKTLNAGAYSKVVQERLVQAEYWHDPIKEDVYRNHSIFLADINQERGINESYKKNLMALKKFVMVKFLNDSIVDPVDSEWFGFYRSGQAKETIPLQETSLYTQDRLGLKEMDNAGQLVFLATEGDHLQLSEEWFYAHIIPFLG

B1: palmitoyl protein thioesterase 1 (PPT1), wild type, P50897 F85del (protein)
chain: T1 chain
B2: palmitoyl protein thioesterase 1 (PPT1): S214A (protein)
parent chain: MASPGCLWLLAVALLPWTCASRALQHLDPPAPLPLVIWHGMGDSCCNPLSMGAIKKMVEKKIPGIYVLSLEIGKTLMEDVENSFFLNVNSQVTTVCQALAKDPKLQQGYNAMGFSQGGQFLRAVAQRCPSPPMINLISVGGQHQGVFGLPRCPGESSHICDFIRKTLNAGAYSKVVQERLVQAEYWHDPIKEDVYRNHSIFLADINQERGINESYKKNLMALKKFVMVKFLNDSIVDPVDSEWFGFYRSGQAKETIPLQETSLYTQDRLGLKEMDNAGQLVFLATEGDHLQLSEEWFYAHIIPFLG
B3: palmitoyl protein thioesterase 1 (PPT1): S234A (protein)
parent chain: B2 parent chain
B4: palmitoyl protein thioesterase 1 (PPT1): S199A (protein)
parent chain: B2 parent chain
B5: palmitoyl protein thioesterase 1 (PPT1): S199A + S214A (protein)
parent chain: B2 parent chain

Columns and labels:
[1] = target: T1, PPT1 F85del, P50897; assay: GFP pull-down (co-immunoprecipitation with anti-GFP-agarose beads, anti-PPT1 immunoblot, quantified); conditions: chain shown with the change; COS-1 cells, lysed 48 h post-transfection; single experiment; parent: est. 100; read off a plot
[2] = 35S-Cys pulse-chase, immunoprecipitation from COS-1 media; conditions: glycan lost; control: wild type
[3] = 4-MU-6S-Palm-βGlc fluorometric assay, COS-1 lysates; conditions: glycan lost; control: wild type
[4] = immunofluorescence, LAMP-1 co-staining, transfected cells; conditions: glycan lost; control: wild type

| percent of parent [1] | Binder | expression_or_secretion [2] | enzymatic activity, percent of wt [3] [%] | localisation_or_trafficking [4] | enzymatic_activity, percent_of_wt [3] |
| --- | --- | --- | --- | --- | --- |
| 150 % of WT | B1 | – | – | – | – |
| – | B2 | no change | 31 | no change | – |
| – | B3 | decreases | – | decreases | – |
| – | B4 | abolishes | – | decreases | – |
| – | B5 | abolishes | – | – | decreases |

Reference: article PMC1906764
